# Laboratory results taken from patent US20190360025A1.
# Assays:
# [1] = molecular target: tumor necrosis factor alpha (TNF-α), R&D Systems 210-TA-005 (UniProt P01375); assay: c-PLA 1X probes, human plasma; TNF-α 1.00E-12 M
# [2] = molecular target: tumor necrosis factor alpha (TNF-α), R&D Systems 210-TA-005 (UniProt P01375); assay: t-PLA 1X probes, human plasma; TNF-α 1.00E-09 M
# [3] = molecular target: tumor necrosis factor alpha (TNF-α), R&D Systems 210-TA-005 (UniProt P01375); assay: SPR (Biacore T200), 1:1 global fit
# [4] = molecular target: tumor necrosis factor alpha (TNF-α), R&D Systems 210-TA-005 (UniProt P01375); assay: t-PLA, buffer; TNF-α 5.00E-07 M
# [5] = molecular target: tumor necrosis factor alpha (TNF-α), R&D Systems 210-TA-005 (UniProt P01375); assay: c-PLA 1X probes, buffer; TNF-α 1.00E-11 M
# [6] = molecular target: tumor necrosis factor alpha (TNF-α), R&D Systems 210-TA-005 (UniProt P01375); assay: c-PLA 10X probes, buffer; TNF-α 1.00E-11 M
# [7] = molecular target: tumor necrosis factor alpha (TNF-α), R&D Systems 210-TA-005 (UniProt P01375); assay: c-PLA 1X probes, human plasma; TNF-α 1.00E-10 M
# [8] = molecular target: tumor necrosis factor alpha (TNF-α), R&D Systems 210-TA-005 (UniProt P01375); assay: c-PLA, buffer; TNF-α 5.00E-07 M
# [9] = molecular target: tumor necrosis factor alpha (TNF-α), R&D Systems 210-TA-005 (UniProt P01375); assay: t-PLA 1X probes, human plasma; TNF-α 1.00E-10 M
# [10] = molecular target: tumor necrosis factor alpha (TNF-α), R&D Systems 210-TA-005 (UniProt P01375); assay: c-PLA 1X probes, human plasma; TNF-α 1.00E-09 M
# [11] = molecular target: tumor necrosis factor alpha (TNF-α), R&D Systems 210-TA-005 (UniProt P01375); assay: t-PLA 1X probes, buffer; TNF-α 1.00E-08 M
# [12] = molecular target: tumor necrosis factor alpha (TNF-α), R&D Systems 210-TA-005 (UniProt P01375); assay: c-PLA 10X probes, human plasma; TNF-α 1.00E-11 M
# [13] = molecular target: tumor necrosis factor alpha (TNF-α), R&D Systems 210-TA-005 (UniProt P01375); assay: c-PLA 10X probes, buffer; TNF-α 1.00E-10 M
# [14] = molecular target: tumor necrosis factor alpha (TNF-α), R&D Systems 210-TA-005 (UniProt P01375); assay: c-PLA 1X probes, human plasma; TNF-α 5.00E-07 M
# [15] = molecular target: tumor necrosis factor alpha (TNF-α), R&D Systems 210-TA-005 (UniProt P01375); assay: c-PLA 1X probes, buffer; TNF-α 1.00E-08 M
# [16] = molecular target: vascular endothelial growth factor (VEGF), R&D Systems 293-VE-010 (human) (UniProt P15692); assay: t-PLA with preamplification; VEGF 1.00E-13 M
# UniProt P15692, sequence (P15692 other isoform, or with tags, fused parts or gaps limits assumed): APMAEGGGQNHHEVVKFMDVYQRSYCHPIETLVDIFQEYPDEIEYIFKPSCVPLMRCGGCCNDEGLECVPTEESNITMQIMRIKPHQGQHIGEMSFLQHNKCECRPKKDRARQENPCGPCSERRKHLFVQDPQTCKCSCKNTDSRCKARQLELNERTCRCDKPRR
# [17] = molecular target: vascular endothelial growth factor (VEGF), R&D Systems 293-VE-010 (human) (UniProt P15692); assay: t-PLA, chicken plasma; VEGF 1.00E-14 M
# [18] = molecular target: vascular endothelial growth factor (VEGF), R&D Systems 293-VE-010 (human) (UniProt P15692); assay: c-PLA, buffer; VEGF 1.00E-12 M
# [19] = molecular target: vascular endothelial growth factor (VEGF), R&D Systems 293-VE-010 (human) (UniProt P15692); assay: c-PLA, human plasma; VEGF 1.00E-08 M
# [20] = molecular target: vascular endothelial growth factor (VEGF), R&D Systems 293-VE-010 (human) (UniProt P15692); assay: t-PLA, chicken plasma; VEGF 1.00E-09 M
# [21] = molecular target: vascular endothelial growth factor (VEGF), R&D Systems 293-VE-010 (human) (UniProt P15692); assay: t-PLA, human plasma; VEGF 1.00E-09 M
# [22] = molecular target: vascular endothelial growth factor (VEGF), R&D Systems 293-VE-010 (human) (UniProt P15692); assay: SPR (Biacore T200), 1:1 global fit
# [23] = molecular target: vascular endothelial growth factor (VEGF), R&D Systems 293-VE-010 (human) (UniProt P15692); assay: c-PLA, buffer; VEGF 1.00E-13 M
# [24] = molecular target: vascular endothelial growth factor (VEGF), R&D Systems 293-VE-010 (human) (UniProt P15692); assay: c-PLA, human plasma; VEGF 1.00E-09 M
# [25] = molecular target: vascular endothelial growth factor (VEGF), R&D Systems 293-VE-010 (human) (UniProt P15692); assay: c-PLA, human plasma; VEGF 1.00E-11 M
# [26] = molecular target: vascular endothelial growth factor (VEGF), R&D Systems 293-VE-010 (human) (UniProt P15692); assay: t-PLA, chicken plasma; VEGF 1.00E-13 M
# [27] = molecular target: vascular endothelial growth factor (VEGF), R&D Systems 293-VE-010 (human) (UniProt P15692); assay: t-PLA, human plasma; VEGF 1.00E-13 M
# [28] = molecular target: vascular endothelial growth factor (VEGF), R&D Systems 293-VE-010 (human) (UniProt P15692); assay: t-PLA, buffer; VEGF 1.00E-13 M
# UniProt P01375, sequence (P01375 77-233 limits assumed): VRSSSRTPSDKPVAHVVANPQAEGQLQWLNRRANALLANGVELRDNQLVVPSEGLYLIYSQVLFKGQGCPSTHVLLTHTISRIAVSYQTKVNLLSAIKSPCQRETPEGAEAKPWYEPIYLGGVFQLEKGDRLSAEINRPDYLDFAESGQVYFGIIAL
substance,measurement,setting,value
affinity-purified polyclonal anti-TNF-α antibody (R&D Systems AF-210-NA),Counts,[1],75.9
same,Counts,[2],4.96e+06
same,SBR,[2],21
same,Kd,[3],0.279 nM
same,Counts,[4],1.33e+08
same,SBR,[4],780
same,Counts,[5],22.1
same,SBR,[5],1.4
same,Counts,[6],590
same,Counts,[7],331
same,SBR,[7],4.4
same,Counts,[8],33000
same,SBR,[8],2930
same,Counts,[9],1.56e+06
same,SBR,[9],6.6
same,Counts,[10],1310
same,SBR,[10],17
same,Counts,[11],5.4e+07
same,SBR,[11],65
same,Counts,[12],2970
same,SBR,[12],1.4
same,Counts,[13],4620
same,Counts,[14],28800
same,SBR,[14],383
same,Counts,[15],11600
same,SBR,[15],730
affinity-purified polyclonal anti-VEGF antibody (R&D Systems AF-293-NA),Counts,[16],577000
same,SBR,[16],3.3
same,Counts,[17],71600
same,SBR,[17],1.1
same,Counts,[18],619
same,SBR,[18],21
same,Counts,[19],24800
same,SBR,[19],96
same,Counts,[20],2.39e+08
same,SBR,[20],3580
same,Counts,[21],1.4e+08
same,SBR,[21],86
same,Kd,[22],0.0036 nM
same,Counts,[23],272
same,SBR,[23],9.1
same,Counts,[24],40500
same,SBR,[24],156
same,Counts,[25],1770
same,SBR,[25],6.8
same,Counts,[26],133000
same,Counts,[27],1.79e+06
same,SBR,[27],1.1
same,Counts,[28],1.61e+06
